Experimental data taken from publication PMC4618557.

Molecular target: Vasna-Cd4d3+4-bio (zebrafish)
Experiment: SPR; BIAcore; Vasna-Cd4d3+4-bio immobilised on a streptavidin-coated sensor chip at high and low levels, Cd4d3+4-bio as reference; Islr2-Cd4d3+4-6xHis injected in serial dilutions; HBS-EP buffer, 28 °C; 20 μl/min for equilibrium, 100 μl/min for kinetics (7, 14, 28 μM); purification of the Vasna bait before capture not given

Kd: 12.4 µM
half-life: 0.16 s
koff: 4.3 s⁻¹
Substance: Islr2-Cd4d3+4-6xHis (domain or fragment)
